This experiment concerns the target p110β (isolated PI3K protein subunit, cell-free kinase ELISA) (UniProt P42338 1-1070, limits assumed). Briefly: cell-based or functional assay.

p110β (isolated PI3K protein subunit, cell-free kinase ELISA), sequence (P42338 whole entry): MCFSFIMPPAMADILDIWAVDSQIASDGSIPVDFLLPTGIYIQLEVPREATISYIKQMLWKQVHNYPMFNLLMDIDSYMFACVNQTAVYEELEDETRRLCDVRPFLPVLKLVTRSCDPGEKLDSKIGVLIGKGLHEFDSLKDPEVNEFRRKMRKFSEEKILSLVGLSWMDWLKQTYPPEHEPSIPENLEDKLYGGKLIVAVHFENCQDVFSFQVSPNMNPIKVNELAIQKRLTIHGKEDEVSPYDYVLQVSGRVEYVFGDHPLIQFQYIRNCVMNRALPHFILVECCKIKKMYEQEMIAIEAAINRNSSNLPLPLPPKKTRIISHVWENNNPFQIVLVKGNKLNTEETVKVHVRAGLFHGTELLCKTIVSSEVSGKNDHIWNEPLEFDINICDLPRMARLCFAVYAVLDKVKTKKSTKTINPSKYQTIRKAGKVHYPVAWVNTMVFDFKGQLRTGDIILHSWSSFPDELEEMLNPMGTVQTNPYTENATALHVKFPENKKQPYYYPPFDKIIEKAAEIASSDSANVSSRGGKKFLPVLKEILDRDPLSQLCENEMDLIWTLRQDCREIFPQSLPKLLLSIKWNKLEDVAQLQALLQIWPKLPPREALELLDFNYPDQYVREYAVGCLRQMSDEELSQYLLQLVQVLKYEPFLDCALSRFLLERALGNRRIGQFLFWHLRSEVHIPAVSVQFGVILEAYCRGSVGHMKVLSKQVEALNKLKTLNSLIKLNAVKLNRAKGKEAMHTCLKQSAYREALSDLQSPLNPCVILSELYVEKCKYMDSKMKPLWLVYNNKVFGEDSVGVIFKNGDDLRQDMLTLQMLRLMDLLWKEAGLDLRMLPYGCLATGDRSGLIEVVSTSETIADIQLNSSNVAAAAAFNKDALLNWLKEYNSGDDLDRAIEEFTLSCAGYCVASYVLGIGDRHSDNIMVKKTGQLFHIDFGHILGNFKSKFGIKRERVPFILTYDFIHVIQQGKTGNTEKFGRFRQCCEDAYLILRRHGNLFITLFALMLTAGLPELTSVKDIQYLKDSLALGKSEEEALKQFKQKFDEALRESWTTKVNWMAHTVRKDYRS

Take RQPKIWFPNRRKPWKKTKKSTKTINPSKYQTIRK [Ante-Selectide-18]: the “activity of the p110b catalytic subunit, measured via ELISA; Half Maximal Inhibitory Concentration (IC50)” value came out at 105 nM.

These data come from patent US20240075093A1 (VIRGINIA TECH INTELLECTUAL PROPERTIES, published 2024).
